Target: T1, PACT C213F, mammalian two-hybrid fusion (human, UniProt O75569 1-313, C213F)
T1 sequence (looked up): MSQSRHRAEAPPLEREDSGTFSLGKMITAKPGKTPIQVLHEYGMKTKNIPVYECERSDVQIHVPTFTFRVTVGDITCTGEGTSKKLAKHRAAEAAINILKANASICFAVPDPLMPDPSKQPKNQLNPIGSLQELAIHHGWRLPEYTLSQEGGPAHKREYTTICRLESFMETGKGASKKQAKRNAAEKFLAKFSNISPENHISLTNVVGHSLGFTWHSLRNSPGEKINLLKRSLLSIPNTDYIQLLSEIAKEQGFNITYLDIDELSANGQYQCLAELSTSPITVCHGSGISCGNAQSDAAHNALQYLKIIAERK
Experiment: two-hybrid

B1: PACT C77S, mammalian two-hybrid fusion (natural protein, human, UniProt O75569 1-313, looked up)
chain: MSQSRHRAEAPPLEREDSGTFSLGKMITAKPGKTPIQVLHEYGMKTKNIPVYECERSDVQIHVPTFTFRVTVGDITSTGEGTSKKLAKHRAAEAAINILKANASICFAVPDPLMPDPSKQPKNQLNPIGSLQELAIHHGWRLPEYTLSQEGGPAHKREYTTICRLESFMETGKGASKKQAKRNAAEKFLAKFSNISPENHISLTNVVGHSLGCTWHSLRNSPGEKINLLKRSLLSIPNTDYIQLLSEIAKEQGFNITYLDIDELSANGQYQCLAELSTSPITVCHGSGISCGNAQSDAAHNALQYLKIIAERK
With B1 the “fold over wt PACT-wt PACT interaction (luciferase reporter)” value was about 9 fold.

— publication PMC12949589 (Neurobiology of disease, 2020)
